“Also recorded” adds a separate entry of the source.
Legend:
HCT116 and SW480 cells = test: EMT markers by immunoblotting and RT–qPCR; type: cell-based, human; conditions: GREM1-CM + GREM1 BAb, + SB505124 (1 µM) or + different concentrations of sb4 (sb4: immunoblotting)
Procedure: (§1) To investigate the effect of secreted GREM1 on CRC cells, an in vitro GREM1 secretion system was established using HEK293 cells. Stably GREM1-expressing cells (pcDNA3.1-GREM1) and empty-vector transfected cells (pcDNA3.1) were cultured in DMEM/F12 medium with 10% FBS until 40% confluence. After complete removal of the normal culture medium, HEK293-GREM1 and HEK293-Vec cells were continuously cultured in DMEM/F12 medium without FBS for 5 days before medium collection. GREM1 or Vector conditioned medium (GREM1-CM/Vec-CM) was then centrifuged at 1000 rpm for 30 min and the supernatant was collected for further study.
(§2) Protein was extracted from the cells with RIPA buffer (Beyotime, P0018) or NP40 lysis buffer (Beyotime, P0013F) and separated by SDS-PAGE, and transferred to polyvinylidene difluoride membranes. […] Band intensity was quantified using Fiji (ImageJ) by grayscale analysis.
(§3) Total RNA was extracted using Trizol reagent (Invitrogen, 15596026). […] The SYBR Green Premix Pro Taq HS qPCR Kit (Accurate Biology, AG11701) was then used to quantify mRNA expression according to the manufacturer’s instructions. All results were calculated using the 2^−ΔΔCt method. […]

[1] = test system: BMP signaling (p-SMAD1/5/9 versus p-SMAD2/3); conditions: sb4; cited from earlier work
Text: Considering that GREM1 is a canonical antagonist of BMP and that BMPRs exert their function through phosphorylation of SMAD1/5/9 (p-SMAD1/5/9), we sought to determine whether GREM1 regulates EMT via BMPR superfamily pathways. […] This definitive exclusion of BMPR–SMAD1/5/9 involvement establish ...

ACVR1C-ECD = test: MST binding of ACVR1C-ECD-Fc to GREM1-His or ACTIVIN B-His; parameters: species or system human
Text: (§4) Expi293F cells were transfected with a pcDNA3.4-ACVR1C-ECD-Fc and pcDNA3.4-ACVR1C-ECD-Fc-double mutant (E85A/T101A) expression vector to produce the target protein, which was subsequently purified using a Protein G column. Briefly, the coding sequence (CDS) of the human ACVR1C extracellular domain (ACVR1C-ECD, NM_145259.3, residues 1–113) fused to an Fc tag was cloned into the pcDNA3.4 vector. Expi293F cells were transfected with this construct, the supernatant was harvested 5 days post transfection.
(§5) MST was carried out on a Monolith NT.115 instrument (NanoTemper Technologies GmbH, MO-L011). To evaluate ACVR1C-ECD or ACVR1C peptide or ACVR1C-ECD-double mutant (E85A/T101A) binding to GREM1-His or ACTIVIN B-His, an increasing concentration of purified ACVR1C-ECD-Fc protein (0–27.5 µM) or ACVR1C peptide (0–2.3 µM) or ACVR1C-ECD-double mutant (0–27.5 µM) was incubated with 50 nM red-fluorescently labeled (NanoTemper Technologies GmbH, MO-L011) GREM1-His protein (R&D, 5190-GR) or ACTIVIN B-His protein (SinoBiological, 10814-H08H). Experiments were carried out in a PBS buffer pH 7.4 using premium capillaries (NanoTemper Technologies GmbH, MO-K025).

ACVR1C = test: Co-immunoprecipitation of GREM1 and ACVR1C; type: binding, human; conditions: HCT116 cells, HA-tagged GREM1, anti-HA
Procedure: (§6) HCT116 cells were transfected with the indicated plasmids and lysed in NP40 lysis buffer (Beyotime, P0013F) supplemented with protease inhibitor cocktail (Thermo, 78446). Lysates were incubated with the indicated Anti-Flag nanobody magarose beads (Ktsm-life, KTSM1338), Anti-HA nanobody magarose beads (Ktsm-life, KTSM1335) or Anti-GFP nanobody magarose beads (Ktsm-life, KTSM1334) overnight at 4 °C. The protein complex was washed four times with the NP40 lysis buffer, eluted with 1×loading buffer (Beyotime, P0015) by boiling for 5 min, followed by mass spectrometry and immunoblotting with the indicated antibodies.
(§7) Protein was extracted from the cells with RIPA buffer (Beyotime, P0018) or NP40 lysis buffer (Beyotime, P0013F) and separated by SDS-PAGE, and transferred to polyvinylidene difluoride membranes. Primary antibodies against GREM1 (1:1,000, SinoBiological, 50016-R117), ACVR1C (1:1,000, Thermo, PA587475), Flag-tag (1:1,000, CST, 14793), HA-tag (1:1,000, CST, 3724), E-Cadherin (1:1,000, CST, 3195), β-Catenin (1:1,000, CST, 8480), ZEB1 (1:1,000, CST, 3396), Snail (1:1,000, CST, 3879), SMAD2/3 (1:1,000, CST, 8685), p-SMAD2/3 (1:1,000, CST, 8828), SMAD1 (1:1,000, CST, 6944), p-SMAD1/5/9 (1:1,000, CST, 13820), TGFβ (1:1,000, CST, 3709), TGFβR1 (0.3 µg/mL, R&D, AF3025), β-actin (1:5,000, Beyotime, AF0003) and GAPDH (1:5,000, Beyotime, AF0006) were used in this study. Peroxidase-conjugated secondary antibody (1:10,000, Cell Signaling Technology, 7074, 7076) was used and signal was visualized using an enhanced chemiluminescence assay (ECL, Thermo), according to the manufacturer’s protocol. Band intensity was quantified using Fiji (ImageJ) by grayscale analysis.

TGFβR1 = test: Co-immunoprecipitation of GREM1 and TGFβR1; type: binding, human; conditions: HCT116 cells, HA-tagged GREM1, anti-HA
Procedure: as §6, §2

HCT116 cells = test: Subcutaneous transplantation of GREM1-CM-pretreated HCT116 cells in nude mice; type: in vivo, human cells in nude mice; conditions: subcutaneous model, HCT116 cells pretreated with GREM1-CM (Figures S8A–C)
Procedure: For cecum-to-liver metastasis model, 1 × 10^6 MC38-luc cells were resuspended in 50 µL of PBS and injected into the cecum of GD mice or control mice (Grem1-CreER^T2/Rosa-LSL-DTA mice) (n = 6 mice in each group); 5 × 10^6 HCT116-luc cells transduced with lentivirus carrying a pLV or pLV-GREM1 were injected into the cecum of NOG mice (n = 5 mice in each group). SB505124 was administered via intraperitoneal injection at a dose of 10 mg/kg once every other day. The metastases were examined every 5 days post injection using an IVIS Lumina Imaging System. Mice were euthanized between 2 and 6 weeks after injection. […] Mice were euthanized 4 weeks after injection. The tumor tissues were collected for further evaluation.
Figure S8. SB505124 inhibits GREM1-CM-induced EMT and metastasis of CRC in vivo. […] D, RT–qPCR analysis of epithelial marker CDH1 and mesenchymal markers CTNNB1, SNAI1, ZEB1 in subcutaneous tumor tissues from the indicated treatment groups. n = 3 independent experiments. E-G, Representative IF images (E) and quantification (F, G) of E-CAD (green), SNAIL (red), and DAPI (blue) staining in tumors from the indicated groups. […] H, I, Representative IVIS images (H) and quantification (I) of NOG mice that were injected with HCT116-luc cells in the cecum wall and treated with either SB505124 or vehicle via abdominal injection. Liver metastases were imaged and quantified using the IVIS Lumina Imaging System (n = 5 mice per group). For B–D, F, G and I, data are presented as mean ± s.e.m. P values were calculated using one-way ANOVA with Bonferroni multiple-comparison test (B–D, F, and G) or two-tailed Student’s t-test (I).

[2] = test system: ACVR1C–SMAD2/3 pathway in HCT116 and SW480 cells; test: Immunoblotting p-SMAD2/3 (ACVR1C pathway); type: cell-based, human; conditions: SW480 and HCT116 cells, increasing concentrations of rhGREM1
Procedure: as §1, §2

[3] = test system: BMPR–SMAD1/5/9 pathway in HCT116 or SW480 cells; test: Immunoblotting p-SMAD1/5/9 (BMPR pathway); type: cell-based, human; conditions: rhGREM1 gradient
Text: as §7

[4] = test system: TGFβ or TGFβR1 in CRC cells; test: Immunoblotting TGFβ and TGFβR1 expression; type: cell-based, human; conditions: CRC cells (HCT116, SW480), rhGREM1 gradient
Text: as §7

SW480 and HCT116 cells = test: Endogenous GREM1 expression by RT–qPCR and immunoblotting; type: cell-based, human; conditions: increasing concentrations of rhGREM1, RT–qPCR (n = 3) and immunoblotting
Text: as §7, §3

[5] = test system: CRC cells (SW480, HCT116, and MC38); test: GREM1 withdrawal assay, RT–qPCR and immunoblot; type: cell-based, human (SW480, mouse (MC38); conditions: rhGREM1 or rmGrem1 200 ng/mL 24 h, then GREM1-free medium 2 and 4 days
Procedure: To determine whether tumor cells that have acquired signaling autonomy can sustain GREM1 expression in the absence of external stimulation, we performed a GREM1 withdrawal assay. CRC cells (SW480, HCT116, and MC38) were first pulsed with rhGREM1 or recombinant mouse GREM1 (rmGrem1) for 24 h to initiate the signaling response. The medium containing rhGREM1 or rmGrem1 was then thoroughly removed, replaced with fresh GREM1-free medium, and the cells were cultured for an additional 4 days. […] This persistent, self-sustaining expression supports our conclusion that the initial rhGREM1 or rmGrem1 stimulation triggers a positive feedback loop of GREM1 transcription within CRC cells.
as §2, §3

GREM1 = target: T1, GREM1 (Homo sapiens, UniProt O60565); test: MST binding of ACVR1C-ECD double mutant (E85A/T101A) to GREM1-His; conditions: double mutant 0–27.5 µM vs 50 nM red-labeled GREM1-His, PBS pH 7.4
T1 construct: His; purchased R&D 5190-GR
T1 sequence (O60565 25-184): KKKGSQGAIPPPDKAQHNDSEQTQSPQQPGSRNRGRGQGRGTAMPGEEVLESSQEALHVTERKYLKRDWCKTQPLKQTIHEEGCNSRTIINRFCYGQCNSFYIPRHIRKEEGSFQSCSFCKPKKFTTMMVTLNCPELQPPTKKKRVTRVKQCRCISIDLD
Text: as §4, §5

Molecule: Brc1ccc(CSc2nc3ccccc3o2)cc1 [sb4]
- GREM1-CM-induced EMT, effect of treatment (HCT116 and SW480 cells): failed to reverse GREM1-induced EMT
- p-SMAD1/5/9 selectivity [1]: exclusively increases p-SMAD1/5/9 without affecting p-SMAD2/3

B1: GREM1: GREM1-His protein (R&D, 5190-GR) in MST; HA-tagged GREM1 in co-IP (protein)
chain: T1 sequence (O60565 25-184)
modifications: left off: HA, end not stated, kept | mCherry, end not stated, kept
notes: GREM1-His protein (R&D, 5190-GR) in MST; HA-tagged GREM1 in co-IP
- affinity for ACVR1C relative to ACTIVIN B, in words (ACVR1C-ECD): superior affinity
- fold higher affinity for ACVR1C-ECD than ACTIVIN B (ACVR1C-ECD; GREM1 Kd versus ACTIVIN B Kd): 12.6 fold
- Kd (ACVR1C-ECD; Monolith NT.115, ACVR1C-ECD-Fc 0–27.5 µM vs 50 nM red-fluorescently labeled His-protein, PBS pH 7.4, premium capillaries, n = 3 independent experiments, mean ± s.e.m.): 67.7 ± 10.3 nM
- co-IP interaction with ACVR1C (ACVR1C): co-immunoprecipitates with ACVR1C; also recorded: interacted with ACVR1C specifically
- co-IP interaction with TGFβR1 (TGFβR1): no such interaction was detected; also recorded: no direct interaction
- effect on subcutaneous tumor proliferation (HCT116 cells): pro-proliferative effect

B2: rhGREM1: recombinant human GREM1 (protein)
chain: T1 sequence (O60565 25-184)
modifications: red fluorescent label (NanoTemper, MO-L011) in the MST assays; left off: His, end not stated, kept
notes: recombinant human GREM1
- p-SMAD2/3, concentration gradient [2]: dose-dependent increase in p-SMAD2/3
- p-SMAD1/5/9 [3]: suppressed the p-SMAD1/5/9
- TGFβ or TGFβR1 expression [4]: No changes were observed across all doses tested
- endogenous GREM1 expression (SW480 and HCT116 cells): dose-dependent upregulation of tumor GREM1 expression
- endogenous GREM1 expression after withdrawal [5]: not only maintained but in some cases further increased even after the withdrawal of exogenous GREM1; also recorded: maintained elevated endogenous GREM1 expression even after withdrawal of exogenous GREM1

B3: ACVR1C-ECD double mutant (E85A/T101A): human ACVR1C extracellular domain fused to an Fc tag, double mutant E85A/T101A (protein)
chain: ELSPGLKCVCLLCDSSNFTCQTEGACWASVMLTNGKEQVIKSCVSLPELNAQVFCHSSNNVTKTACCFTDFCNNITLHLPAASPNAPKLGPME
modifications: left off: Fc, end not stated, kept
- binding of ACVR1C-ECD double mutant to GREM1 (GREM1): no detectable interaction

Source: publication PMC13371181, “A paracrine-to-autocrine shunt of GREM1 fuels colorectal cancer metastasis via ACVR1C” (Molecular Cancer, 2026)
